{"source": "paper PMC10069166", "about": "(Heliyon, 2023)", "binders": {"B1": {"name": "80R antibody (antibody, V domains shown)", "VH": "EVQLVQSGGGVVQPGKSLRLSCAASGFAFSSYAMHWVRQAPGKGLEWVAVISYDGSNKYYADSVKGRFTISRDNSKNTLYLQMNSLRAEDTAVYYCARDRSYYLDYWGQGTLVTVSS", "VL": "TTLTQSPATLSLSPGERATLSCRASQSVRSNLAWYQQKPGQAPRPLIYDASTRATGIPDRFSGSGSGTDFTLTISRLEPEDFAVYYCQQRSNWPPTFGQGTKVEVK"}}, "target": "SARS-CoV-2 Spike protein (RBD, His & Avi tag) (SARS-CoV-2, wild type, UniProt P0DTC2)", "test": "BLI", "data": [{"binder": "B1", "values": [{"measurement": "binding result", "value": "no binding (tested: 20 nM and 10 nM)"}]}]}
